Blank lines part the entries; values can stand above or below the binder they belong to.
Tests used:
[1] = biological target: T1, proapoptotic TRAIL receptor DR4 (TRAIL R1) (UniProt O00220 24-468, limits assumed); assay: flow cytometry on EGFR low/negative HepG2 cells; detection with anti-TRAIL mAb
T1 construct: whole, on cells; Endogenous receptor on cell lines

[2] = biological target: EGF receptor (EGFR, erbB1) (human, UniProt P00533 25-1210); assay: cell-based or functional assay
mouse serum albumin = biological target: T2, mouse serum albumin (mouse, UniProt P07724 25-608); assay: size exclusion chromatography after incubation with albumin
T2 construct: also called MSA

human serum albumin = biological target: T3, human serum albumin (human, UniProt P02768 25-609); assay: as above
T3 construct: also called HSA

binding result [1]: binds
apoptosis-inducing activity on EGFR-positive Huh-7 cells compared to scTRAIL (SEQ ID NO: 104) [2]: 10 fold
B1: EGFR-specific TRAIL fusion protein of SEQ ID NO: 96 (FLAG tag, huC225 VH, (GGGGS)3 linker L, VL, linker X, scTRAIL) (other)
chain: LEASDYKDDDDKGAEVQLVESGGGLVQPGGSLRLSCAASGFSLTNYGVHWVRQAPGKGLEWLGVIWSGGNTDYNTPFTSRFTISRDNSKNTLYLQMNSLRAEDTAVYYCARALTYYDYEFAYWGQGTTVTVSSGGGGSGGGGSGGGGSDIQLTQSPSFLSASVGDRVTITCRASQSIGTNIHWYQQKPGKAPKLLIKYASESISGVPSRFSGSGSGTEFTLTISSLQPEDFATYYCQQNNNWPTTFGAGTKLEIKRAAAEFTRGTSEETISTVQEKQQNISPLVRERGPQRVAAHITGTRGRSNTLSSPNSKNEKALGRKINSWESSRSGHSFLSNLHLRNGELVIHEKGFYYIYSQTYFRFQEEIKENTKNDKQMVQYIYKYTSYPDPILLMKSARNSCWSKDAEYGLYSIYQGGIFELKENDRIFVSVTNEHLIDMDHEASFFGAFLVGGGGSGGGSTSEETISTVQEKQQNISPLVRERGPQRVAAHITGTRGRSNTLSSPNSKNEKALGRKINSWESSRSGHSFLSNLHLRNGELVIHEKGFYYIYSQTYFRFQEEIKENTKNDKQMVQYIYKYTSYPDPILLMKSARNSCWSKDAEYGLYSIYQGGIFELKENDRIFVSVTNEHLIDMDHEASFFGAFLVGGGGSGGGSTSEETISTVQEKQQNISPLVRERGPQRVAAHITGTRGRSNTLSSPNSKNEKALGRKINSWESSRSGHSFLSNLHLRNGELVIHEKGFYYIYSQTYFRFQEEIKENTKNDKQMVQYIYKYTSYPDPILLMKSARNSCWSKDAEYGLYSIYQGGIFELKENDRIFVSVTNEHLIDMDHEASFFGAFLVG
notes: also called VH-VL-scTRAIL

binding result (mouse serum albumin): binds
binding result (human serum albumin): binds
B2: dimeric EGFR-specific TRAIL fusion protein of SEQ ID NO: 125 with an albumin binding domain (ABD) between component B and components A (other)
chain: LEASDYKDDDDKGAEVQLVESGGGLVQPGGSLRLSCAASGFSLTNYGVHWVRQAPGKGLEWLGVIWSGGNTDYNTPFTSRFTISRDNSKNTLYLQMNSLRAEDTAVYYCARALTYYDYEFAYWGQGTTVTVSSGGGGSDIQLTQSPSFLSASVGDRVTITCRASQSIGTNIHWYQQKPGKAPKLLIKYASESISGVPSRFSGSGSGTEFTLTISSLQPEDFATYYCQQNNNWPTTFGAGTKLEIKRGGSQHDEAVDANSLAEAKVLANRELDKYGVSDYYKNLINNAKTVEGVKALIDEILAALPAAAGNGTSNGTSEFTRGTSEETISTVQEKQQNISPLVRERGPQRVAAHITGTRGRSNTLSSPNSKNEKALGRKINSWESSRSGHSFLSNLHLRNGELVIHEKGFYYIYSQTYFRFQEEIKENTKNDKQMVQYIYKYTSYPDPILLMKSARNSCWSKDAEYGLYSIYQGGIFELKENDRIFVSVTNEHLIDMDHEASFFGAFLVGGGGSGGGSTSEETISTVQEKQQNISPLVRERGPQRVAAHITGTRGRSNTLSSPNSKNEKALGRKINSWESSRSGHSFLSNLHLRNGELVIHEKGFYYIYSQTYFRFQEEIKENTKNDKQMVQYIYKYTSYPDPILLMKSARNSCWSKDAEYGLYSIYQGGIFELKENDRIFVSVTNEHLIDMDHEASFFGAFLVGGGGSGGGSTSEETISTVQEKQQNISPLVRERGPQRVAAHITGTRGRSNTLSSPNSKNEKALGRKINSWESSRSGHSFLSNLHLRNGELVIHEKGFYYIYSQTYFRFQEEIKENTKNDKQMVQYIYKYTSYPDPILLMKSARNSCWSKDAEYGLYSIYQGGIFELKENDRIFVSVTNEHLIDMDHEASFFGAFLVG

binding result [1]: binds
B3: EGFR-specific TRAIL fusion protein according to SEQ ID NO: 102 (FLAG tag, huC225 VH, GGGGS linker L, VL, linker X, scTRAIL) (other)
chain: LEASDYKDDDDKGAEVQLVESGGGLVQPGGSLRLSCAASGFSLTNYGVHWVRQAPGKGLEWLGVIWSGGNTDYNTPFTSRFTISRDNSKNTLYLQMNSLRAEDTAVYYCARALTYYDYEFAYWGQGTTVTVSSGGGGSDIQLTQSPSFLSASVGDRVTITCRASQSIGTNIHWYQQKPGKAPKLLIKYASESISGVPSRFSGSGSGTEFTLTISSLQPEDFATYYCQQNNNWPTTFGAGTKLEIKRAAAEFTRGTSEETISTVQEKQQNISPLVRERGPQRVAAHITGTRGRSNTLSSPNSKNEKALGRKINSWESSRSGHSFLSNLHLRNGELVIHEKGFYYIYSQTYFRFQEEIKENTKNDKQMVQYIYKYTSYPDPILLMKSARNSCWSKDAEYGLYSIYQGGIFELKENDRIFVSVTNEHLIDMDHEASFFGAFLVGGGGSGGGSTSEETISTVQEKQQNISPLVRERGPQRVAAHITGTRGRSNTLSSPNSKNEKALGRKINSWESSRSGHSFLSNLHLRNGELVIHEKGFYYIYSQTYFRFQEEIKENTKNDKQMVQYIYKYTSYPDPILLMKSARNSCWSKDAEYGLYSIYQGGIFELKENDRIFVSVTNEHLIDMDHEASFFGAFLVGGGGSGGGSTSEETISTVQEKQQNISPLVRERGPQRVAAHITGTRGRSNTLSSPNSKNEKALGRKINSWESSRSGHSFLSNLHLRNGELVIHEKGFYYIYSQTYFRFQEEIKENTKNDKQMVQYIYKYTSYPDPILLMKSARNSCWSKDAEYGLYSIYQGGIFELKENDRIFVSVTNEHLIDMDHEASFFGAFLVG
notes: Made in HEK293 cells; The FLAG tag was kept for purification; also called divalent TRAIL fusion protein; dimeric TRAIL fusion protein

binding result (mouse serum albumin): binds
binding result (human serum albumin): binds
B4: dimeric EGFR-specific TRAIL fusion protein of SEQ ID NO: 126 with an albumin binding domain (ABD) at the C-terminus (other)
chain: LEASDYKDDDDKGAEVQLVESGGGLVQPGGSLRLSCAASGFSLTNYGVHWVRQAPGKGLEWLGVIWSGGNTDYNTPFTSRFTISRDNSKNTLYLQMNSLRAEDTAVYYCARALTYYDYEFAYWGQGTTVTVSSGGGGSDIQLTQSPSFLSASVGDRVTITCRASQSIGTNIHWYQQKPGKAPKLLIKYASESISGVPSRFSGSGSGTEFTLTISSLQPEDFATYYCQQNNNWPTTFGAGTKLEIKRAAAGNGTSNGTSEFTRGTSEETISTVQEKQQNISPLVRERGPQRVAAHITGTRGRSNTLSSPNSKNEKALGRKINSWESSRSGHSFLSNLHLRNGELVIHEKGFYYIYSQTYFRFQEEIKENTKNDKQMVQYIYKYTSYPDPILLMKSARNSCWSKDAEYGLYSIYQGGIFELKENDRIFVSVTNEHLIDMDHEASFFGAFLVGGGGSGGGSTSEETISTVQEKQQNISPLVRERGPQRVAAHITGTRGRSNTLSSPNSKNEKALGRKINSWESSRSGHSFLSNLHLRNGELVIHEKGFYYIYSQTYFRFQEEIKENTKNDKQMVQYIYKYTSYPDPILLMKSARNSCWSKDAEYGLYSIYQGGIFELKENDRIFVSVTNEHLIDMDHEASFFGAFLVGGGGSGGGSTSEETISTVQEKQQNISPLVRERGPQRVAAHITGTRGRSNTLSSPNSKNEKALGRKINSWESSRSGHSFLSNLHLRNGELVIHEKGFYYIYSQTYFRFQEEIKENTKNDKQMVQYIYKYTSYPDPILLMKSARNSCWSKDAEYGLYSIYQGGIFELKENDRIFVSVTNEHLIDMDHEASFFGAFLVGGGSGGQHDEAVDANSLAEAKVLANRELDKYGVSDYYKNLINNAKTVEGVKALIDEILAALP
